Measured values reported in US20200291116A1 (ABEXXA BIOLOGICS, published 2020).

What was measured:
[1] = target: T1, HLA-E*0103 (extracellular domain with beta-2-microglobulin, recombinant) (human); test: peptide binding and in vitro refolding
[2] = target: T1, HLA-E*0103 (extracellular domain with …); test: in vitro refold, Superdex 75, SEC-HPLC, 3D12 binding

YLLPAIVHI [peptide YLLPAIVHI (RNA Helicase p68)]
binding result [1]: binds

GLADKVYFL [peptide GLADKVYFL (CAD protein)]
binding result [2]: binds
